No end group written: not given here.
T1: DGI-2 polypeptide (UniProt Q15004 1-111, limits assumed)
T1 construct: Soluble recombinant protein coated at 500 ng/well; vector tag of pIVEX2.3-MCS not described for this construct; also called KIAA0101
T1 sequence (looked up): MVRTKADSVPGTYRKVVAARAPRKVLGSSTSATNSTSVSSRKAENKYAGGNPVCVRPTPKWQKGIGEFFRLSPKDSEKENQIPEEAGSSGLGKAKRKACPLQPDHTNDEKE

T2: DGI-2 (UniProt Q15004 1-111, limits assumed)
T2 construct: Soluble recombinant DGI-2 made by in vitro translation (RTS, pIVEX2.3-MCS vector) and coated on plates for the ELISA; vector tag not described; also called KIAA0101; DGI-2 polypeptide
T2 sequence (looked up): T1 sequence (looked up)

B1: DGI-2-20F-PP-D9 (peptide)
peptide: VRAVYSRDAYNEVGRWMRVGIAAAGAPVPYPDPLEPRP
B2: DGI-2-20F-P0P-D6 (peptide)
peptide: GITGLFCLCLRSSQSIAAAGAPVPYPDPLEPRP
B3: DGI-2-20F-PP-F1 (peptide)
peptide: ERVSKCVGRGSGRSVGQFGGAAAGAPVPYPDPLEPRP
B4: DGI-2-20F-PP-C7 (peptide)
peptide: SSVWATWGSDLRTFGSVGFLAAAGAPVPYPDPLEPRP
B5: DGI-2-20F-PP-A6 (peptide)
peptide: VCGQRVARMQLNKTIRKLDSAAAGAPVPYPDPLEPRP
B6: DGI-2-20F-PP-F10 (peptide)
peptide: VVHTRAWGSWAYGFVLRNRGAAAGAPVPYPDPLEPRP
B7: DGI-2-20F-PP-E6 (peptide)
peptide: EVFVSVWVFRFRVMPVTPGGTAAAGAPVPYPDPLEPRP
B8: DGI-2-20F-PP-C3 (peptide)
peptide: LGRTFVWGTCLHLSVSRFGHAAAGAPVPYPDPLEPRP
B9: DGI-2-20F-PP-A22 (peptide)
peptide: VCSGGKGTWLEIPDRVRSSTAAAGAPVPYPDPLEPRP
B10: DGI-2-20F-PP-C4 (peptide)
peptide: SIILAGCVWVMPCGQNLGGVAAAGAPVPYPDPLEPRP
B11: DGI-2-20F-PP-B2 (peptide)
peptide: RSYPRLCKQKGGVIGRMLPGAAAGAPVPYPDPLEPRP
B12: DGI-2-20F-PP-A3 (peptide)
peptide: SLFERSARSRYHGSPDCNGSAAAGAPVPYPDPLEPRP
B13: DGI-2-20F-PP-A4 (peptide)
peptide: RVSYEMLGRRRRSMHGSSMRAAAGAPVPYPDPLEPRP
B14: DGI-2-20F-PP-G6 (peptide)
peptide: GSTRLRVTVRFCSETGTPGCAAAGAPVPYPDPLEPRP
B15: DGI-2-20F-PP-B3 (peptide)
peptide: RGSLLLTLPRLSGAVGTAYGAAAGAPVPYPDPLEPRP
B16: DGI-2-20F-PP-C10 (peptide)
peptide: DRSRAPLCADKSGRWQRYRRAAAGAPVPYPDPLEPRP
B17: DGI-2-20F-PP-C9 (peptide)
peptide: YAMSSRECGIRNSGLILSMWAAAGAPVPYPDPLEPRP
B18: DGI-2-20F-PP-H10 (peptide)
peptide: GRAGTSMTELVAWGFVQRVGAAAGAPVPYPDPLEPRP
B19: DGI-2-20R-4-E6 (peptide)
peptide: VLGADAGMIWFMDGCGIRCR
modifications: not fully specified; cysteine pairing not given here
notes: on M13 phage, pIII fusion with E-tag
B20: DGI-2-20R-3-C2 (peptide)
peptide: RDTTSQWSWISRGWEFPGWR
notes: as for B19
B21: DGJ-2-20R-3-A10 (peptide)
peptide: RRILPWSFPGCGRMC
modifications: not fully specified; cysteine pairing not given here
notes: as for B19
B22: DGI-2-20R-3-A1 (peptide)
peptide: EGNWFCAVFRGFCVGDRGPE
modifications: not fully specified (bridges); cysteine pairing not given here
notes: as for B19
B23: DGI-2-20R-3-D9 (peptide)
peptide: WGCVFRQWASGSGAGCARRH
modifications: not fully specified; cysteine pairing not given here
notes: as for B19
B24: DGI-2-40F-4-F97 (peptide)
peptide: QVGGMTQVGATVLSVVTGRGSCDGEDAWYPPGVTVGLGLC
notes: as for B19
B25: DGI-2-20F-3-B5 (peptide)
peptide: RERWGTAWNLWTEGVVDVRP
notes: as for B19
B26: DGI-2-20R-3-A8 (peptide)
peptide: RSIRLQLIDEACQFFDGLCT
modifications: not fully specified; cysteine pairing not given here
notes: as for B19
B27: DGI-2-20R-4-H112 (peptide)
peptide: SLECWAMPGMVVRLVGCDGP
modifications: not fully specified (bridges); cysteine pairing not given here
notes: as for B19
B28: DGI-2-20R-3-B1 (peptide)
peptide: WWERFVWGRPVDDGVVVMAT
notes: as for B19
B29: DGI-2-20R-3-D127 (peptide)
peptide: SWACGLLWPGECGSQVARRG
modifications: not fully specified; cysteine pairing not given here
notes: as for B19
B30: DGI-2-20R-3-A11 (peptide)
peptide: WAASCFWGHVALGCGRNGQG
modifications: not fully specified (bridges); cysteine pairing not given here
notes: as for B19
B31: DGI-2-20R-4-G99 (peptide)
peptide: DQRVVGSGWFERLRNWYDRA
notes: as for B19
B32: DGI-2-20F-PP-F1 (peptide)
peptide: ERVSKCVGRGSGRSVGQFGG
notes: as for B19

Each binder was assayed against T1, DGI-2 polypeptide (assay: phage ELISA).
Experimental: (§1) For analysis of individual target binders, colonies were picked and phage prepared as described above using helper phage, M13KO7. Ninety-six-well microtiter plates were coated with 500 ng/well of specific target protein, 500 ng/well lactate dehydrogenase (LDH) irrelevant or non-specific target, 500 ng/well of positive control antibody raised against ETAG, and negative control of non-fat milk powder-PBS 2% at 4° C. overnight. Plates were then blocked with 350 microliters/well PBS containing 2% non-fat milk for 1 hr at room temperature. One hundred microliters per well of phage from isolated clones were added and plates were incubated at room temperature for 2 hr after centrifuging samples for 20 minutes at 3500 rpm at 4° C. The phage solution was then removed, and the wells were washed three times with PBS at room temperature. Antibody raised against M13 conjugated to horseradish peroxidase (Pharmacia) was diluted 1:3000 in PBS-Tween and added to each well (100 µl/well). Incubation was for 1 hr at room temperature, followed by washing with PBS-(0.5%) Tween 3 times as described. Color was developed by addition of ABTS solution (100 µl/well; Boehringer, Indianapolis, Ind.). Plates were analyzed at 405 nm. A clone was considered "positive" if the $A405$ of the well was $\geq$2-fold over background.

Binder	DGI-2 (OD)	DGI-2/LDH [ratio]
B1	2.9	2.9
B2	3.3	3.2
B3	3	3.4
B4	3	2.6
B5	3.1	2.8
B6	3.5	2.8
B7	3	2.6
B8	5.3	5.1
B9	3.3	3.1
B10	3	3.2
B11	3.3	2.9
B12	2.8	2.4
B13	2.7	2.6
B14	2.7	2.5
B15	3.4	3
B16	2.7	3.1
B17	3.5	3.9

Each binder was assayed against T3, lactate dehydrogenase (LDH) (assay: phage ELISA).
T3 construct: Coated at 500 ng/well as non-specific target; also called LDH polypeptide
Experimental: as §1

Binder	LDH (OD)
B1	1
B2	1
B18	0.7
B3	0.9
B4	1.1
B5	1.1
B6	1.3
B7	1.2
B8	1
B9	1
B10	0.9
B11	1.1
B12	1.2
B13	1.1
B14	1.1
B15	1.1
B16	0.9
B17	0.9

What follows are binders tested against T4, antibody raised against ETAG (assay: phage ELISA).
T4 construct: Coated at 500 ng/well; also called E-tag antibody
Experimental: as §1

Binder	ETAG (OD)
B1	9
B2	5.7
B18	13
B3	11.1
B4	11
B5	35.1
B6	42.5
B7	4.1
B8	39.9
B9	44.1
B10	36.1
B11	35.9
B12	12.9
B13	6.6
B14	36.1
B15	11.7
B16	8.6
B17	31.6

The binders below were run against T2, DGI-2 (assay: phage ELISA, coated DGI-2).
Experimental: as §1

Binder	binding result
B19	binds
B20	binds
B21	binds
B22	binds
B23	binds
B24	binds
B25	binds
B26	binds
B27	binds
B28	binds
B29	binds
B30	binds
B31	binds
B32	binds

Reference: US7056679 (ANTYRA, dated 2006)
